The target in this experiment is sodium channel.

2 molecules from patent US5830703 can be followed below.

Where no end group is shown, it is not given here.

B1: proadrenomedullin N-terminal 10-20 peptide (proAM-N(10-20)) (peptide)
peptide: RKKWNKWALSR
modifications: ends and bridges not checked
Consider B1, for which the flow of ^22 Na into cells amounted to 70%.

B2: proadrenomedullin N-terminal 20 peptide (proAM-N20) (peptide)
peptide: ARLDVASEFRKKWNKWALSR
modifications: ends and bridges not checked
B2 gave a flow of ^22 Na into cells of 30%.
